Measurements taken from paper PMC5850324, “Interactions between the Hepatitis C Virus Nonstructural 2 Protein and Host Adaptor Proteins 1 and 4 Orchestrate Virus Release” (mBio, 2018).

Assays:
Assay in all cases: split reporter (BiFC, NanoBiT); protein fragment complementation assay (split luciferase): GLuc1-AP μ subunit and GLuc2-HCV protein transfected pairwise into 293T cells; luciferase at 24 h; normalized luminescence ratio (NLR), positive if NLR >25 (>2.2 SD above a random reference set); mutant panels plotted relative to WT; NS2-AP-1B also tested after treatment with compound 7745, 12i, sunitinib or erlotinib
[1] = biological target: GLuc1-tagged μ subunit of the AP-4 complex (UniProt O00189)
Sequence of GLuc1-tagged μ subunit of the AP-4 complex (O00189 whole entry, one chain of several): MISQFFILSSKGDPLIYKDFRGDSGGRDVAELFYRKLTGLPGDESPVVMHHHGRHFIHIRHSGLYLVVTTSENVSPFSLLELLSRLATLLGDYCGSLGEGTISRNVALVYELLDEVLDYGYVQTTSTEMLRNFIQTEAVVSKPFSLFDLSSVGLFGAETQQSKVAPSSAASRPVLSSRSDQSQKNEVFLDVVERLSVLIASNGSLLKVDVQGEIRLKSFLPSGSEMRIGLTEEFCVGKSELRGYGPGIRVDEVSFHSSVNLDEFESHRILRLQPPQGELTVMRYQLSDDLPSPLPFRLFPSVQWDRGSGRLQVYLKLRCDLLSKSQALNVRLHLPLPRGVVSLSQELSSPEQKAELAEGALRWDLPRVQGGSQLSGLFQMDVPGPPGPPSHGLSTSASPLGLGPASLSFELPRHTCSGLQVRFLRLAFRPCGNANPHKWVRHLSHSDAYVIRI

[2] = biological target: T1, GLuc-tagged T144A mutant AP-1B (μ subunit) (UniProt Q9Y6Q5 1-423, T144A); conditions: partners not purified
T1 construct: μ subunit of adaptor protein complex AP-1B with T144A; also called phosphorylation site mutant AP-1; source: transfected cells (PCA); not shown: GLuc1 luciferase fragment, N-terminal, kept
T1 sequence: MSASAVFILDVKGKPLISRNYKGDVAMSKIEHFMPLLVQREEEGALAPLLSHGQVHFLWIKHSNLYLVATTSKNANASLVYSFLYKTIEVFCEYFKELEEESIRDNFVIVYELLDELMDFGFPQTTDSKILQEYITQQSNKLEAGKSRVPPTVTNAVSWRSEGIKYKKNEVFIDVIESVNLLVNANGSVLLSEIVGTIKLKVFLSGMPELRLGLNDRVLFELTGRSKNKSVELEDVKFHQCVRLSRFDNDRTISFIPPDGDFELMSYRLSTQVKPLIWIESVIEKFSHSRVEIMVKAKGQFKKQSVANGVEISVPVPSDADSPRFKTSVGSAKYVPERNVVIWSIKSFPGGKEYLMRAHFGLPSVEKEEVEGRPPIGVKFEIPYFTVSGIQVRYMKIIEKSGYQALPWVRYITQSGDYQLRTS

[3] = biological target: T2, GLuc-tagged T144A mutant AP-1A (μ subunit) (UniProt Q9BXS5 1-423, T144A); conditions: partners not purified
T2 construct: μ subunit of adaptor protein complex AP-1A (AP1M1) with T144A; also called phosphorylation site mutant AP-1; source: transfected cells (PCA); not shown: GLuc1 luciferase fragment, N-terminal, kept
T2 sequence: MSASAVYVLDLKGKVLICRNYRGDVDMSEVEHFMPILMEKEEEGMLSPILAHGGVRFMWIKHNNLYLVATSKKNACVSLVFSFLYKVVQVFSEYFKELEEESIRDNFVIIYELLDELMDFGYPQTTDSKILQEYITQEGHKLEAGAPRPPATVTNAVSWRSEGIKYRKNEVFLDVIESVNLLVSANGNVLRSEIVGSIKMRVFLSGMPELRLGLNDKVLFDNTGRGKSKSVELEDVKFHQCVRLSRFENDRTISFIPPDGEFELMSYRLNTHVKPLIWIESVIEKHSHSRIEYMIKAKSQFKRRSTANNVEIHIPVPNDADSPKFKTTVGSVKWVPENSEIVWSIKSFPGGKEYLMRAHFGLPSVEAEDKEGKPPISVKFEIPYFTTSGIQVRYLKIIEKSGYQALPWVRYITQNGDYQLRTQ

**Q.** For “GLuc-NS2 double mutant (L202A-L217A) (natural protein)”, which fold reduction of binding (NLR) relative to WT NS2 [1] is on record?
**A.** 3 fold

**Q.** How did the fold reduction of binding (NLR) relative to WT NS2 [1] turn out when “GLuc-NS2 quadruple mutant (L202A-L203A-L216A-L217A) (natural protein)” was run?
**A.** 4 fold

B1: GLuc2-NS2 (hepatitis C virus nonstructural 2 protein, wild type) (natural protein)
chain: YDASVHGQIGAALLVLITLFTLTPGYKTLLSRFLWWLCYLLTLAEAMVQEWAPPMQVRGGRDGIIWAVAIFCPGVVFDITKWLLAVLGPAYLLKGALTRVPYFVRAHALLRMCTMVRHLAGGRYVQMVLLALGRWTGTYIYDHLTPMSDWAANGLRDLAVAVEPIIFSPMEKKVIVWGAETAACGDILHGLPVSARLGREVLLGPADGYTSKGWSLL
notes: cut product of the polyprotein; also called WT NS2; GLuc-NS2; source: 293T, transfected (PCA); Huh7.5, transfected, membrane fraction (co-IP) and knockout cells (PCA); not shown: GLuc2 luciferase fragment, N-terminal, kept
**Q.** How did the “fold reduction of binding (NLR) relative to WT AP-1B” value [2] turn out when B1 was run?
**A.** ~2 fold

**Q.** And the “fold reduction of binding (NLR) relative to WT AP-1A” value [3]?
**A.** ~2 fold
